From publication PMC3439905

Biological target: human alpha-thrombin (CD samples) (Homo sapiens, UniProt P00734;P00734 328-363;364-622)
Assay: CD thermal denaturation at 295 nm

B1: TBA (thrombin-binding aptamer) (structured_DNA)
DNA: GGTTGGTGTGGTTGG
- binding result: binds
